Four molecules from patent publication US20160022764A1 (RHYTHM PHARMACEUTICALS, published 2016) can be followed below.

Bridge positions count the residues as written; N and C are the ends. Square brackets hold non-standard residues; d marks the D form. dPhe(4-F) = N[C@H](Cc1ccc(F)cc1)C(=O)O Some results are limits rather than exact numbers.

Targets include melanocortin-1 receptor (human, UniProt Q01726 1-317); melanocortin-3 receptor (human, UniProt P41968 1-323); melanocortin-4 receptor (human, UniProt P32245 1-332); melanocortin-5 receptor (human, UniProt P33032 1-325).
Holding throughout (assay): cell-based or functional assay

Sequence of melanocortin-3 receptor (P41968 whole entry): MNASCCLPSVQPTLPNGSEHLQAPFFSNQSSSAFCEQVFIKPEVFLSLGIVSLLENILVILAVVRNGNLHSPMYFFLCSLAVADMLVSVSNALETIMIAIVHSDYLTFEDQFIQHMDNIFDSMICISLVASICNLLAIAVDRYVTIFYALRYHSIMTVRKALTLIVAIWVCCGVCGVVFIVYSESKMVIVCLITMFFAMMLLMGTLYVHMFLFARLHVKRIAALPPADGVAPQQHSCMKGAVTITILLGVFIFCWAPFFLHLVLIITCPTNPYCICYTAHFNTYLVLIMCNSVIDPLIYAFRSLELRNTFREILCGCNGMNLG
Sequence of melanocortin-4 receptor (P32245 whole entry): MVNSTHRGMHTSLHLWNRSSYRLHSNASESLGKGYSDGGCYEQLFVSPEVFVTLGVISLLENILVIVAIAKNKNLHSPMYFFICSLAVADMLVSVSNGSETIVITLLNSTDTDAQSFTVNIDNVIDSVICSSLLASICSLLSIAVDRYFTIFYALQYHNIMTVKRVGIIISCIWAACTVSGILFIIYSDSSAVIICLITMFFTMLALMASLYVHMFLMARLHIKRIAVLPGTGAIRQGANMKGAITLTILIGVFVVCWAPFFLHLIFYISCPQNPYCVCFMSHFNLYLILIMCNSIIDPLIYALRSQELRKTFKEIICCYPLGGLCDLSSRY
Sequence of melanocortin-5 receptor (P33032 whole entry): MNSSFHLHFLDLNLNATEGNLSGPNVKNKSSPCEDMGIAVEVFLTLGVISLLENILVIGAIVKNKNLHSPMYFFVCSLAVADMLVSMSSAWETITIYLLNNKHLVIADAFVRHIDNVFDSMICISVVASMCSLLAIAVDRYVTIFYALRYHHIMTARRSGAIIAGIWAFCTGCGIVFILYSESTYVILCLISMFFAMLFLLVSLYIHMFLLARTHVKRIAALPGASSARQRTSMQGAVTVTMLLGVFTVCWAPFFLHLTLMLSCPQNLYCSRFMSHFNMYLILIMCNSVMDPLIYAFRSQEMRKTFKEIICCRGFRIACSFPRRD
Sequence of melanocortin-1 receptor (Q01726 whole entry): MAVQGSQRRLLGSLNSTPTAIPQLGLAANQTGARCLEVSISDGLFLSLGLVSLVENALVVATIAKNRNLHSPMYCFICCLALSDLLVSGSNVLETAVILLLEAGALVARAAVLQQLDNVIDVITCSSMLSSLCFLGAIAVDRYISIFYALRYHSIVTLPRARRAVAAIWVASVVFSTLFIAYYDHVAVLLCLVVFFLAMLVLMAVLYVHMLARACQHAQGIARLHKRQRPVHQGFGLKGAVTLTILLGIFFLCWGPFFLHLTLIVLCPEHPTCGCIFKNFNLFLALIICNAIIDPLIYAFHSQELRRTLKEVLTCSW

B1: Compound 8: Ac-Arg-cyclo[Cys-D-Ala-Gln-D-Phe-Arg-Trp-Cys]-NH2 (peptide)
peptide: Ac-RC[dA]Q[dF]RWC-NH2
modifications: disulfide 2-8
SMILES: CC(=O)N[C@@H](CCCNC(=N)N)C(=O)N[C@H]1CSSC[C@@H](C(N)=O)NC(=O)[C@H](Cc2c[nH]c3ccccc23)NC(=O)[C@H](CCCNC(=N)N)NC(=O)[C@@H](Cc2ccccc2)NC(=O)[C@H](CCC(N)=O)NC(=O)[C@@H](C)NC1=O
As for B1, in the assay with melanocortin-1 receptor, the “Ratios of EC50 values: MC1/4” value was 40 and the “cAMP Assay (EC-50)” value stood at 71 nM. In the assay with melanocortin-3 receptor, the “Ratios of EC50 values: MC3/4” value was 5 and the “cAMP Assay (EC-50)” value stood at 8.6 nM. Besides, the “cAMP Assay (EC-50)” value with melanocortin-4 receptor amounted to 1.6 nM. Further, in the assay with melanocortin-5 receptor, the “Ratios of EC50 values: MC5/4” value was 155 and the “cAMP Assay (EC-50)” value turned out to be 255 nM.

B2: Compound 14: Ac-Arg-cyclo[Cys-D-Ala-Pro-D-Phe(p-F)-Arg-Trp-Cys]-NH2 (peptide)
peptide: Ac-RC[dA]P[dPhe(4-F)]RWC-NH2
modifications: disulfide 2-8
SMILES: CC(=O)N[C@@H](CCCNC(=N)N)C(=O)N[C@H]1CSSC[C@@H](C(N)=O)NC(=O)[C@H](Cc2c[nH]c3ccccc23)NC(=O)[C@H](CCCNC(=N)N)NC(=O)[C@@H](Cc2ccc(F)cc2)NC(=O)[C@@H]2CCCN2C(=O)[C@@H](C)NC1=O
Regarding B2, in the assay with melanocortin-1 receptor, the “Ratios of EC50 values: MC1/4” value was 7 and the “cAMP Assay (EC-50)” value is 169 nM. Besides, in the assay with melanocortin-3 receptor, the “Ratios of EC50 values: MC3/4” value is above 400 and the “cAMP Assay (EC-50)” value was above 10000 nM. Moreover, the “cAMP Assay (EC-50)” value with melanocortin-4 receptor amounted to 24 nM. For the same molecule, in the assay with melanocortin-5 receptor, the “Ratios of EC50 values: MC5/4” value was 12 and the “cAMP Assay (EC-50)” value turned out to be 283 nM.

B3: Compound 13: Ac-Arg-cyclo[Cys-D-Ala-Pro-D-Phe-Arg-Trp-Cys]-NH2 (peptide)
peptide: Ac-RC[dA]P[dF]RWC-NH2
modifications: disulfide 2-8
SMILES: CC(=O)N[C@@H](CCCNC(=N)N)C(=O)N[C@H]1CSSC[C@@H](C(N)=O)NC(=O)[C@H](Cc2c[nH]c3ccccc23)NC(=O)[C@H](CCCNC(=N)N)NC(=O)[C@@H](Cc2ccccc2)NC(=O)[C@@H]2CCCN2C(=O)[C@@H](C)NC1=O
Turning to B3, in the assay with melanocortin-1 receptor, the “Ratios of EC50 values: MC1/4” value amounted to 5 and the “cAMP Assay (EC-50)” value was 280 nM. In addition, in the assay with melanocortin-3 receptor, the “Ratios of EC50 values: MC3/4” value was above 200 and the “cAMP Assay (EC-50)” value is above 10000 nM. Further, the “cAMP Assay (EC-50)” value with melanocortin-4 receptor came out at 56 nM. Further, in the assay with melanocortin-5 receptor, the “Ratios of EC50 values: MC5/4” value was found to be 13 and the “cAMP Assay (EC-50)” value turned out to be 707 nM.

B4: Compound 9: Ac-Arg-cyclo[Cys-D-Ala-Asn-D-Phe-Arg-Trp-Cys]-NH2 (peptide)
peptide: Ac-RC[dA]N[dF]RWC-NH2
modifications: disulfide 2-8
SMILES: CC(=O)N[C@@H](CCCNC(=N)N)C(=O)N[C@H]1CSSC[C@@H](C(N)=O)NC(=O)[C@H](Cc2c[nH]c3ccccc23)NC(=O)[C@H](CCCNC(=N)N)NC(=O)[C@@H](Cc2ccccc2)NC(=O)[C@H](CC(N)=O)NC(=O)[C@@H](C)NC1=O
With B4, in the assay with melanocortin-1 receptor, the “Ratios of EC50 values: MC1/4” value is 90. In addition, the “cAMP Assay (EC-50)” value was 248 nM in the assay with melanocortin-1 receptor, 81 nM in the assay with melanocortin-3 receptor, 3 nM with melanocortin-4 receptor and 1490 nM with melanocortin-5 receptor. Moreover, in the assay with melanocortin-3 receptor, the “Ratios of EC50 values: MC3/4” value amounted to 30. Also, the “Ratios of EC50 values: MC5/4” value in the assay with melanocortin-5 receptor amounted to 530.
